Experimental data from the supplement of paper PMC10567573.

B1: ANKRD17 (parent)
chain: EMVRFLLEAGADQEHKTDEMHTAL
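Further: lentivirally expressed fusions sorted by FACS into six bins by GFP to DsRed ratio, PSI derived from sequencing read proportions per bin multiplied by bin number.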

Variants of: B1
Test: protein stability index of a GFP-peptide fusion (GPS, HEK-293T) (PSI 1-6); higher = more stable
Details: c terminus: a fixed tail appended
In the case of EMVRFLLEAGADQEHKTDRMHTAL [E19R], the protein stability index is reported as 2.7.
Work on EMVRFLLEAGADQEHKTDSMHTAL [E19S] yielded a protein stability index of 2.16.
Work on EMVRFLLEAGADQEHKTDTMHTAL [E19T] yielded a protein stability index of 2.53.
In the case of EMVRFLLEAGADQEHKTDVMHTAL [E19V], the protein stability index is reported as 1.79.
With EMVRFLLEAGADQEHKTDWMHTAL [E19W] the protein stability index was 1.43.
EMVRFLLEAGADQEHKTDYMHTAL [E19Y] gave a protein stability index of 1.6.
For EMVRFLLEAGADQEHKTDEAHTAL [M20A], the protein stability index was 3.04.
In the case of EMVRFLLEAGADQEHKTDECHTAL [M20C], the protein stability index is reported as 2.48.
Variant EMVRFLLEAGADQEHKTDEDHTAL [M20D] has a protein stability index of 3.56.
In the case of EMVRFLLEAGADQEHKTDEEHTAL [M20E], the protein stability index is reported as 2.94.
EMVRFLLEAGADQEHKTDEFHTAL [M20F] showed a protein stability index of 2.75.
EMVRFLLEAGADQEHKTDEGHTAL [M20G] showed a protein stability index of 3.12.
In the case of EMVRFLLEAGADQEHKTDEHHTAL [M20H], the protein stability index is reported as 2.79.
Variant EMVRFLLEAGADQEHKTDEIHTAL [M20I] has a protein stability index of 2.36.
Work on EMVRFLLEAGADQEHKTDEKHTAL [M20K] yielded a protein stability index of 2.94.
EMVRFLLEAGADQEHKTDELHTAL [M20L] gave a protein stability index of 3.13.
For EMVRFLLEAGADQEHKTDENHTAL [M20N], the protein stability index was 3.59.
Variant EMVRFLLEAGADQEHKTDEPHTAL [M20P] has a protein stability index of 3.21.
With EMVRFLLEAGADQEHKTDEQHTAL [M20Q] the protein stability index was 3.
Variant EMVRFLLEAGADQEHKTDERHTAL [M20R] has a protein stability index of 3.5.
Variant EMVRFLLEAGADQEHKTDESHTAL [M20S] has a protein stability index of 3.45.
EMVRFLLEAGADQEHKTDETHTAL [M20T] gave a protein stability index of 3.15.
EMVRFLLEAGADQEHKTDEVHTAL [M20V] gave a protein stability index of 2.84.
EMVRFLLEAGADQEHKTDEWHTAL [M20W] showed a protein stability index of 2.82.
Variant EMVRFLLEAGADQEHKTDEYHTAL [M20Y] has a protein stability index of 2.45.
In the case of EMVRFLLEAGADQEHKTDEMATAL [H21A], the protein stability index is reported as 3.24.
EMVRFLLEAGADQEHKTDEMCTAL [H21C] gave a protein stability index of 3.21.
For EMVRFLLEAGADQEHKTDEMDTAL [H21D], the protein stability index was 2.96.
Variant EMVRFLLEAGADQEHKTDEMETAL [H21E] has a protein stability index of 2.89.
With EMVRFLLEAGADQEHKTDEMFTAL [H21F] the protein stability index was 2.19.
Work on EMVRFLLEAGADQEHKTDEMGTAL [H21G] yielded a protein stability index of 3.1.
In the case of EMVRFLLEAGADQEHKTDEMITAL [H21I], the protein stability index is reported as 2.55.
With EMVRFLLEAGADQEHKTDEMKTAL [H21K] the protein stability index was 3.11.
Variant EMVRFLLEAGADQEHKTDEMLTAL [H21L] has a protein stability index of 2.66.
EMVRFLLEAGADQEHKTDEMMTAL [H21M] gave a protein stability index of 3.25.
EMVRFLLEAGADQEHKTDEMNTAL [H21N] showed a protein stability index of 3.05.
With EMVRFLLEAGADQEHKTDEMPTAL [H21P] the protein stability index was 2.54.
Work on EMVRFLLEAGADQEHKTDEMQTAL [H21Q] yielded a protein stability index of 3.55.
EMVRFLLEAGADQEHKTDEMRTAL [H21R] gave a protein stability index of 3.36.
EMVRFLLEAGADQEHKTDEMSTAL [H21S] showed a protein stability index of 3.4.
Work on EMVRFLLEAGADQEHKTDEMTTAL [H21T] yielded a protein stability index of 2.81.
EMVRFLLEAGADQEHKTDEMVTAL [H21V] gave a protein stability index of 2.34.
Work on EMVRFLLEAGADQEHKTDEMWTAL [H21W] yielded a protein stability index of 1.92.
For EMVRFLLEAGADQEHKTDEMYTAL [H21Y], the protein stability index was 2.41.
In the case of EMVRFLLEAGADQEHKTDEMHAAL [T22A], the protein stability index is reported as 2.77.
Work on EMVRFLLEAGADQEHKTDEMHCAL [T22C] yielded a protein stability index of 2.2.
For EMVRFLLEAGADQEHKTDEMHDAL [T22D], the protein stability index was 2.75.
EMVRFLLEAGADQEHKTDEMHEAL [T22E] showed a protein stability index of 3.42.
EMVRFLLEAGADQEHKTDEMHFAL [T22F] showed a protein stability index of 1.97.
EMVRFLLEAGADQEHKTDEMHGAL [T22G] gave a protein stability index of 3.23.
With EMVRFLLEAGADQEHKTDEMHHAL [T22H] the protein stability index was 2.39.
In the case of EMVRFLLEAGADQEHKTDEMHIAL [T22I], the protein stability index is reported as 1.93.
EMVRFLLEAGADQEHKTDEMHKAL [T22K] gave a protein stability index of 2.51.
With EMVRFLLEAGADQEHKTDEMHLAL [T22L] the protein stability index was 3.45.
In the case of EMVRFLLEAGADQEHKTDEMHMAL [T22M], the protein stability index is reported as 2.15.
EMVRFLLEAGADQEHKTDEMHNAL [T22N] gave a protein stability index of 2.86.
Variant EMVRFLLEAGADQEHKTDEMHPAL [T22P] has a protein stability index of 2.86.
Variant EMVRFLLEAGADQEHKTDEMHQAL [T22Q] has a protein stability index of 2.78.
EMVRFLLEAGADQEHKTDEMHRAL [T22R] showed a protein stability index of 2.5.
EMVRFLLEAGADQEHKTDEMHSAL [T22S] showed a protein stability index of 2.98.
Variant EMVRFLLEAGADQEHKTDEMHVAL [T22V] has a protein stability index of 2.46.
Variant EMVRFLLEAGADQEHKTDEMHWAL [T22W] has a protein stability index of 1.91.
For EMVRFLLEAGADQEHKTDEMHYAL [T22Y], the protein stability index was 1.93.
Variant EMVRFLLEAGADQEHKTDEMHTCL [A23C] has a protein stability index of 2.49.
For EMVRFLLEAGADQEHKTDEMHTDL [A23D], the protein stability index was 3.06.
For EMVRFLLEAGADQEHKTDEMHTEL [A23E], the protein stability index was 2.91.
Variant EMVRFLLEAGADQEHKTDEMHTFL [A23F] has a protein stability index of 2.18.
EMVRFLLEAGADQEHKTDEMHTGL [A23G] gave a protein stability index of 2.72.
EMVRFLLEAGADQEHKTDEMHTHL [A23H] gave a protein stability index of 2.69.
EMVRFLLEAGADQEHKTDEMHTIL [A23I] showed a protein stability index of 2.97.
With EMVRFLLEAGADQEHKTDEMHTKL [A23K] the protein stability index was 2.76.
EMVRFLLEAGADQEHKTDEMHTLL [A23L] showed a protein stability index of 2.43.
In the case of EMVRFLLEAGADQEHKTDEMHTML [A23M], the protein stability index is reported as 2.7.
For EMVRFLLEAGADQEHKTDEMHTNL [A23N], the protein stability index was 3.01.
EMVRFLLEAGADQEHKTDEMHTPL [A23P] gave a protein stability index of 3.12.
Variant EMVRFLLEAGADQEHKTDEMHTQL [A23Q] has a protein stability index of 3.69.
EMVRFLLEAGADQEHKTDEMHTRL [A23R] gave a protein stability index of 2.96.
Work on EMVRFLLEAGADQEHKTDEMHTSL [A23S] yielded a protein stability index of 3.05.
Variant EMVRFLLEAGADQEHKTDEMHTTL [A23T] has a protein stability index of 2.74.
EMVRFLLEAGADQEHKTDEMHTVL [A23V] showed a protein stability index of 2.6.
For EMVRFLLEAGADQEHKTDEMHTWL [A23W], the protein stability index was 3.12.
Work on EMVRFLLEAGADQEHKTDEMHTYL [A23Y] yielded a protein stability index of 3.03.
With EMVRFLLEAGADQEHKTDEMHTAA [L24A] the protein stability index was 2.75.
With EMVRFLLEAGADQEHKTDEMHTAC [L24C] the protein stability index was 2.75.
EMVRFLLEAGADQEHKTDEMHTAD [L24D] showed a protein stability index of 4.06.
Variant EMVRFLLEAGADQEHKTDEMHTAE [L24E] has a protein stability index of 3.79.
With EMVRFLLEAGADQEHKTDEMHTAF [L24F] the protein stability index was 2.34.
For EMVRFLLEAGADQEHKTDEMHTAG [L24G], the protein stability index was 3.
EMVRFLLEAGADQEHKTDEMHTAH [L24H] gave a protein stability index of 2.78.
Work on EMVRFLLEAGADQEHKTDEMHTAI [L24I] yielded a protein stability index of 2.31.
In the case of EMVRFLLEAGADQEHKTDEMHTAK [L24K], the protein stability index is reported as 3.3.
Variant EMVRFLLEAGADQEHKTDEMHTAM [L24M] has a protein stability index of 2.37.
Work on EMVRFLLEAGADQEHKTDEMHTAN [L24N] yielded a protein stability index of 3.03.
For EMVRFLLEAGADQEHKTDEMHTAP [L24P], the protein stability index was 2.4.
In the case of EMVRFLLEAGADQEHKTDEMHTAQ [L24Q], the protein stability index is reported as 3.14.
